Measured values published in US20140072613A1 (published 2014).

Legend:
Experiment in all cases: cell-based or functional assay
JNK3(h) = JNK3(h) (human, UniProt P53779 1-464, limits assumed)
CDK5/p35(h) = CDK5/p35(h) (human, UniProt Q00535 1-292; Q15078 1-307)
CLK2(h) = CLK2(h) (human, UniProt P49760 1-499, limits assumed)
Syk(h) = Syk(h) (human, UniProt P43405 1-635)
CaMKIV(h) = molecular target: T1, CaMKIV(h) (human, UniProt Q16566 1-473)
T1 sequence (looked up): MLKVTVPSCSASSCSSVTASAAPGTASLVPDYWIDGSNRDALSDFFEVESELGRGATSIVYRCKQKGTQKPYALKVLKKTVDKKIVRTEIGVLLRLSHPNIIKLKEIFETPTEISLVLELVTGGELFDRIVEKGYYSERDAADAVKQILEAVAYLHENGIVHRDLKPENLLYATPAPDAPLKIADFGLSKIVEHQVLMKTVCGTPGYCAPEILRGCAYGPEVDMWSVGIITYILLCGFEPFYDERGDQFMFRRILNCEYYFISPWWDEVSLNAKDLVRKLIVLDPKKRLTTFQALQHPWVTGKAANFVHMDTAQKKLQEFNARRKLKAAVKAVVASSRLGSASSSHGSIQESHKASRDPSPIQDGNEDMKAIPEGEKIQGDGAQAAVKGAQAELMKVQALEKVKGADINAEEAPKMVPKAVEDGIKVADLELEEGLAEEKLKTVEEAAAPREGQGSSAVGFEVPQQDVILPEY

PDGFRα(D842V)(h) = PDGFRα(D842V)(h) (human, UniProt P16234 550-1089, limits assumed)
Chain of PDGFRα(D842V)(h) (P16234 550-1089 D842V limits assumed): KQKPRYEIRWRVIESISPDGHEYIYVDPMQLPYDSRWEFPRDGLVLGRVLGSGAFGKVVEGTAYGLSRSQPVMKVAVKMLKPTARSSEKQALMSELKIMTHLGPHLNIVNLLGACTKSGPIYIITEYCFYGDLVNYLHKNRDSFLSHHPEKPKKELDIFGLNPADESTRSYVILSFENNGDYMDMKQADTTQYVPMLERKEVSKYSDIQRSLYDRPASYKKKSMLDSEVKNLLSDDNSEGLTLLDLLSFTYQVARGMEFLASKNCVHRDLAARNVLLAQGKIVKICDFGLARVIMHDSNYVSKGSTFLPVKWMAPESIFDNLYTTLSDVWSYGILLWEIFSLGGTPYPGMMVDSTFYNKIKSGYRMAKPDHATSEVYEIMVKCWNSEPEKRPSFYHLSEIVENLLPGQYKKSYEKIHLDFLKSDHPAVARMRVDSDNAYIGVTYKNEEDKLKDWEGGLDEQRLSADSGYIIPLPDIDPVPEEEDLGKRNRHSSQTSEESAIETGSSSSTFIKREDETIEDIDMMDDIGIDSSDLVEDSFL

Abl(T315I)(h) = Abl(T315I)(h) (human, UniProt P00519 27-1130, limits assumed)
Chain of Abl(T315I)(h) (P00519 27-1130 T315I limits assumed): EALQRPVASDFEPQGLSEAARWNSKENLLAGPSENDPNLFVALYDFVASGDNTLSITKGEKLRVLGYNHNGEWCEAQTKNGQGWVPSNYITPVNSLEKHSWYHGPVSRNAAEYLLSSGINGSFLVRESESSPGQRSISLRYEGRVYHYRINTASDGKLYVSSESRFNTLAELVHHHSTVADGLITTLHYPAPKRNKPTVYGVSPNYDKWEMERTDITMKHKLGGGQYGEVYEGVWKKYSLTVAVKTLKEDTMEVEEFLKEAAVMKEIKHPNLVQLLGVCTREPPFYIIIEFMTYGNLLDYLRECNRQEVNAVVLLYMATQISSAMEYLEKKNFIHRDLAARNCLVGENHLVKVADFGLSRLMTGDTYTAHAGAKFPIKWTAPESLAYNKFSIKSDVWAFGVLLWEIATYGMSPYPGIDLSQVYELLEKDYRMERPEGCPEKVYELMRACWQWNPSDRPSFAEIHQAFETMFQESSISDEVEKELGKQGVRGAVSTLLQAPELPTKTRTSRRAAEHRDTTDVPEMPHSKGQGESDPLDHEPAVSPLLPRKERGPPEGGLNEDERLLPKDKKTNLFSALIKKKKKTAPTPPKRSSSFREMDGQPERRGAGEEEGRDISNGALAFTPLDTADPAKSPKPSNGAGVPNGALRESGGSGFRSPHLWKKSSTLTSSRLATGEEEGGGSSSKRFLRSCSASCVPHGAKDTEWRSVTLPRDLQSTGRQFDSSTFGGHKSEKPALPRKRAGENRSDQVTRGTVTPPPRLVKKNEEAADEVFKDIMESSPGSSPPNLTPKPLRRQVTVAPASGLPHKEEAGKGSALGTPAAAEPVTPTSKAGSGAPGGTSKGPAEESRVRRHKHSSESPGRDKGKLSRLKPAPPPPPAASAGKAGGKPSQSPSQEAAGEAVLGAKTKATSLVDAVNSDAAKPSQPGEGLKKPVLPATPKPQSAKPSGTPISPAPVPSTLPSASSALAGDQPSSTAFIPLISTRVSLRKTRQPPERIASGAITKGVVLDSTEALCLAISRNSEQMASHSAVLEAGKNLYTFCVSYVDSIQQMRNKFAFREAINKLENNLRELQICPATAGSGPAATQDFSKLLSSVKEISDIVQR

Yes(h) = Yes(h) (human, UniProt P07947 1-543)
Chain of Yes(h) (P07947 whole entry): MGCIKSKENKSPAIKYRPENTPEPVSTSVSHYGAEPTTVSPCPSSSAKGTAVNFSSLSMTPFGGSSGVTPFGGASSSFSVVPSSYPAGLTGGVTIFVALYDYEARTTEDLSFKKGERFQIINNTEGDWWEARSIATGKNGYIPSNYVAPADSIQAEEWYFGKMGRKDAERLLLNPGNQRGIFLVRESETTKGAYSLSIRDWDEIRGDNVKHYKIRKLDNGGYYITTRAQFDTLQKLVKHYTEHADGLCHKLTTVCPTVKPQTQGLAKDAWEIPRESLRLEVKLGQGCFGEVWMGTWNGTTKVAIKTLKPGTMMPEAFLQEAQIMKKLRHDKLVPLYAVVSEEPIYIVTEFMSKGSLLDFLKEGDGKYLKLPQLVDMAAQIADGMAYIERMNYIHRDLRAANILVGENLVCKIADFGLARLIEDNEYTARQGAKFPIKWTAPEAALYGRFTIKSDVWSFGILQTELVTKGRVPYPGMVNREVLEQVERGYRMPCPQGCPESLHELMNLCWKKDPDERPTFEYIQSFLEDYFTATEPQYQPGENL

cKit(h) = cKit(h) (human, UniProt P10721 544-976)
Chain of cKit(h) (P10721 544-976): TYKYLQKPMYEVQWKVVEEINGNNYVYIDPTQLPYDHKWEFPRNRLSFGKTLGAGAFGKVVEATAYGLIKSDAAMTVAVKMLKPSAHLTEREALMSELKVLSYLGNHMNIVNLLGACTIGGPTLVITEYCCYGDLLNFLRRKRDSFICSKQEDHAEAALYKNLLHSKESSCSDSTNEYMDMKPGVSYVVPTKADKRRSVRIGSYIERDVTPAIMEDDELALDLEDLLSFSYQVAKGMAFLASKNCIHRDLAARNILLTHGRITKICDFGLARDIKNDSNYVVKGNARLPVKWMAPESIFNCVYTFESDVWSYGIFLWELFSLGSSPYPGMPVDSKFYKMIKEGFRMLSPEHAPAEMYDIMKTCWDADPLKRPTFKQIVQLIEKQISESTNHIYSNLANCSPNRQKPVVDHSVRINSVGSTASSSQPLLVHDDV

MAPKAP-K2(h) = MAPKAP-K2(h) (human, UniProt P49137 46-400)
Chain of MAPKAP-K2(h) (P49137 46-400 limits assumed): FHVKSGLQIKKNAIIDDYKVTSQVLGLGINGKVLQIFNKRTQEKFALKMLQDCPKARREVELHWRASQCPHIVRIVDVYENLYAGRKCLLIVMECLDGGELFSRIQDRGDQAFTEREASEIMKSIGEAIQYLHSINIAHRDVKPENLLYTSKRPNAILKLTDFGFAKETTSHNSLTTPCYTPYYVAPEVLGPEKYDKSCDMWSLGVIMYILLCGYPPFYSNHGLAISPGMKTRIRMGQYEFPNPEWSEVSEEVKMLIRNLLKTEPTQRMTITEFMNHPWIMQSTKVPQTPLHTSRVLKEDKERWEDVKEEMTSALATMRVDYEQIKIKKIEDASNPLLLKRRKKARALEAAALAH

CDK3/cyclinE(h) = CDK3/cyclinE(h) (human, UniProt Q00526 1-305; P24864 1-410)
CDK6/cyclinD3(h) = CDK6/cyclinD3(h) (human, UniProt Q00534 1-326; P30281 1-292)
Chain of CDK6/cyclinD3(h) (Q00534 whole entry, chain 1 of 2): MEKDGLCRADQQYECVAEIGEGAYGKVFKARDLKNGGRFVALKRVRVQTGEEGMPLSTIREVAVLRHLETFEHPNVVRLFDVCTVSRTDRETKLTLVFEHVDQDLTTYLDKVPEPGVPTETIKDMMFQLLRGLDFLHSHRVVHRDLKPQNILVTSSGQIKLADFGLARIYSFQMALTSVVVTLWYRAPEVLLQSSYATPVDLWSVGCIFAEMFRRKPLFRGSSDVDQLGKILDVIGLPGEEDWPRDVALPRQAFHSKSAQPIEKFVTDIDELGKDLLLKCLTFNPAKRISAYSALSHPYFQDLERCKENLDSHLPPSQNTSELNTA
Chain of CDK6/cyclinD3(h) (P30281 whole entry, chain 2 of 2): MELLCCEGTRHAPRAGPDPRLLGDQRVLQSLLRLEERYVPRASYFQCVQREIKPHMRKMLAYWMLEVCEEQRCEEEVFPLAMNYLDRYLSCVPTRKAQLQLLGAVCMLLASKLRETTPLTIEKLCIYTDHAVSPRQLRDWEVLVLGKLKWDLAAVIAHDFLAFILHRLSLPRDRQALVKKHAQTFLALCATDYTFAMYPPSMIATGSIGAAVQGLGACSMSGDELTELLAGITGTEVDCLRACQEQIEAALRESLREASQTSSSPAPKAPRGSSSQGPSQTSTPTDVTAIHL

PKD2(h) = molecular target: T2, PKD2(h) (human, UniProt Q9BZL6 1-878)
T2 sequence (looked up): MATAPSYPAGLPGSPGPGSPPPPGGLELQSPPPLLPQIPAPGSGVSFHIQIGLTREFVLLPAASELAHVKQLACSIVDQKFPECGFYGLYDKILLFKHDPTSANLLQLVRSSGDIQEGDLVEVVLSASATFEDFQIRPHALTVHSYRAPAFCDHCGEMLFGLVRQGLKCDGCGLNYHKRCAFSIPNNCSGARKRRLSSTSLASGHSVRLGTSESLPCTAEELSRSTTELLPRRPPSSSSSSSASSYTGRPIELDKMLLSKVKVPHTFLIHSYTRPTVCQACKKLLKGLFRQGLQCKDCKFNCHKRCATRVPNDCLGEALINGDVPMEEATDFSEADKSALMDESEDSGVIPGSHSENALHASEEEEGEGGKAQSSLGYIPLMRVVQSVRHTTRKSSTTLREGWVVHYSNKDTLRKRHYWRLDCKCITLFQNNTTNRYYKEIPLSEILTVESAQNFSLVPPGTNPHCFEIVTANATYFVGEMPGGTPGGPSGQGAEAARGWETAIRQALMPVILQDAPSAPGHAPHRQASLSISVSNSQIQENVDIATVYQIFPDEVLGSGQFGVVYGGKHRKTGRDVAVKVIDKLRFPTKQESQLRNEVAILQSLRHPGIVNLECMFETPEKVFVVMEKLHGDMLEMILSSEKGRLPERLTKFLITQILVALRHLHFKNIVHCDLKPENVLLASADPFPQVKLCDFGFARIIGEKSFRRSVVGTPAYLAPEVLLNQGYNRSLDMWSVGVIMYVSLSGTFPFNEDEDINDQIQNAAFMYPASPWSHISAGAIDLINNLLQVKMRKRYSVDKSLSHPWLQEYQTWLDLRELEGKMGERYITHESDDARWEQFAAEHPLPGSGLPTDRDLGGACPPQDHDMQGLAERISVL

Abl(Q252H)(h) = Abl(Q252H)(h) (human, UniProt P00519 27-1130, limits assumed)
Chain of Abl(Q252H)(h) (P00519 27-1130 Q252H limits assumed): as the sequence (P00519 27-1130 T315I limits assumed) above, with Q226H, I289T counted along it

Fes(h) = Fes(h) (human, UniProt P07332 1-822, limits assumed)
Chain of Fes(h) (P07332 whole entry): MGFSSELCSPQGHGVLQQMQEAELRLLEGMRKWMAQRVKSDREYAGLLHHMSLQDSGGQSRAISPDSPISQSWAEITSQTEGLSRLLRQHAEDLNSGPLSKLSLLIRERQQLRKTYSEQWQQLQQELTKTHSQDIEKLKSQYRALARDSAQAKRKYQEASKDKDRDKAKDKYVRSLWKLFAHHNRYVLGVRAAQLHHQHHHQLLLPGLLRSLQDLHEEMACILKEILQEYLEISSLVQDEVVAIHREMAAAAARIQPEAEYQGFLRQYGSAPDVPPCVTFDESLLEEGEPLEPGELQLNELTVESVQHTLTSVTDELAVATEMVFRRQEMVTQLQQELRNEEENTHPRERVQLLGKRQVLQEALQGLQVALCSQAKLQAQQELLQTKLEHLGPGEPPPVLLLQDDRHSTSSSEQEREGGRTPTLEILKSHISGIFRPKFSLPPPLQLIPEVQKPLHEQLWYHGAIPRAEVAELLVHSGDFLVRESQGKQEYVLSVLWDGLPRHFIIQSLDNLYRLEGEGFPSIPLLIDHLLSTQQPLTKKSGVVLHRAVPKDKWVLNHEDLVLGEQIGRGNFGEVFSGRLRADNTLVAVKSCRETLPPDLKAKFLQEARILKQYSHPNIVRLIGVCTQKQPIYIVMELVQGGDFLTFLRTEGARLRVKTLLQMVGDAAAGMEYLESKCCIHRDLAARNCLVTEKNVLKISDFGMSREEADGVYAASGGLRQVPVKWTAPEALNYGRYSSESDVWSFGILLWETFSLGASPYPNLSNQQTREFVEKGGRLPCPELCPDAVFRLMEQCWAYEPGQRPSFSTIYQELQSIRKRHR

DDR2(h) = molecular target: T3, DDR2(h) (human, UniProt Q16832 422-855, limits assumed)
T3 sequence (looked up): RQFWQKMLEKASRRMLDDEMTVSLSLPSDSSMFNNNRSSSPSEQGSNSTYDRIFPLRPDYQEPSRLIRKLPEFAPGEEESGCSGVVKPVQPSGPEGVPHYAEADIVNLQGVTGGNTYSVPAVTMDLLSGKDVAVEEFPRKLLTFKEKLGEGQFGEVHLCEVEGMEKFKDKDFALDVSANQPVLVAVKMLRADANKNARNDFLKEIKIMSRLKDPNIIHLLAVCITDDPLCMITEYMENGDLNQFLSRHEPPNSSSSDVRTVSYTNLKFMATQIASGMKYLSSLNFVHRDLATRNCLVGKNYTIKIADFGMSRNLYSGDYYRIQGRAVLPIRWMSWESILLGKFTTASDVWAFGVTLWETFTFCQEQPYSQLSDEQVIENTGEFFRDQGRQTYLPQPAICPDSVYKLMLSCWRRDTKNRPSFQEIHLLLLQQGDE

Chain of JNK3(h) (P53779 whole entry): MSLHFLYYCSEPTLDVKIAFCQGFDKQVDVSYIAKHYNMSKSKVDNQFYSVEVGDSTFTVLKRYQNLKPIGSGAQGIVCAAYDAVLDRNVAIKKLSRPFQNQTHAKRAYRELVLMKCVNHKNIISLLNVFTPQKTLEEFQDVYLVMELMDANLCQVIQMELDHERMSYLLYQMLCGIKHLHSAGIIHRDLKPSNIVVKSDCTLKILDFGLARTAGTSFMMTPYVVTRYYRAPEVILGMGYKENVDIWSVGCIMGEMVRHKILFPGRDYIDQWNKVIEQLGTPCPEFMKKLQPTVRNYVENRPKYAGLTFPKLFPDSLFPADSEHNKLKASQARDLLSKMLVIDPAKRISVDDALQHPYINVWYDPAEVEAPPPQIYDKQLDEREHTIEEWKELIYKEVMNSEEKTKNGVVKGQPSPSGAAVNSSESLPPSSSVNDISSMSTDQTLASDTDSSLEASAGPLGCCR

With KAFAKLAARLYRKALARQLGVAA [MMI-0400] the “% activity, 100 µM” value (JNK3(h)) was 70%, the “% activity, 100 µM” value (CDK5/p35(h)) was 76% and the “% activity, 100 µM” value (CLK2(h)) was 116%. The “% activity, 100 µM” value (Syk(h)) was 9%, the “% activity, 100 µM” value (CaMKIV(h)) was 18% and the “% activity, 100 µM” value (PDGFRα(D842V)(h)) was 118%. For the same binder, the “% activity, 100 µM” value (Abl(T315I)(h)) was 105%, the “% activity, 100 µM” value (Yes(h)) was 14% and the “% activity, 100 µM” value (cKit(h)) was 43%. The “% activity, 100 µM” value (MAPKAP-K2(h)) was 5%, the “% activity, 100 µM” value (CDK3/cyclinE(h)) was 92% and the “% activity, 100 µM” value (CDK6/cyclinD3(h)) was 85%. The “% activity, 100 µM” value (PKD2(h)) was 25%, the “% activity, 100 µM” value (Abl(Q252H)(h)) was 98% and the “% activity, 100 µM” value (Fes(h)) was 16%. The “% activity, 100 µM” value (DDR2(h)) was 95%.

In the case of FAKLAARLYRKALARQLGVAA [MMI-0300], the “% activity, 100 µM” value (JNK3(h)) is reported as 89%, the “% activity, 100 µM” value (CDK5/p35(h)) is reported as 79% and the “% activity, 100 µM” value (CLK2(h)) is reported as 103%. The “% activity, 100 µM” value (Syk(h)) was 24%, the “% activity, 100 µM” value (CaMKIV(h)) was 17% and the “% activity, 100 µM” value (PDGFRα(D842V)(h)) was 114%. The “% activity, 100 µM” value (Abl(T315I)(h)) was 97%, the “% activity, 100 µM” value (Yes(h)) was 67% and the “% activity, 100 µM” value (cKit(h)) was 53%. For the same binder, the “% activity, 100 µM” value (MAPKAP-K2(h)) was 5%, the “% activity, 100 µM” value (CDK3/cyclinE(h)) was 94% and the “% activity, 100 µM” value (CDK6/cyclinD3(h)) was 86%. The “% activity, 100 µM” value (PKD2(h)) was 33%, the “% activity, 100 µM” value (Abl(Q252H)(h)) was 82% and the “% activity, 100 µM” value (Fes(h)) was 20%. The “% activity, 100 µM” value (DDR2(h)) was 94%.
